Eight molecules from patent publication US20220340678A1 (MURAL ONCOLOGY, published 2022) can be followed below.

In one experiment the target is T1, IL-12 p40 C177S variant (human, UniProt P29460 23-328).
T1 sequence: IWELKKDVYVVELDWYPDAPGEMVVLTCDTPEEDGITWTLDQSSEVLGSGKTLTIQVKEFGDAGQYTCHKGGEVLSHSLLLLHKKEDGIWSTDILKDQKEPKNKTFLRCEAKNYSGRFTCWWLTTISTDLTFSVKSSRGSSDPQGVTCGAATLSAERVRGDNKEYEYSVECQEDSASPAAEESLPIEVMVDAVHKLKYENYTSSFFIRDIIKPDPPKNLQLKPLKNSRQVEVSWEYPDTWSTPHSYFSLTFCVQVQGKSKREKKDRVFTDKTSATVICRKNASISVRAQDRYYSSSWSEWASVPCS
Put plainly: BLI (Octet), p35 C74 variant against p40 C177S.

The next experiment addresses T2, IL-12 p40 C177F variant (human, UniProt P29460 23-328).
T2 sequence: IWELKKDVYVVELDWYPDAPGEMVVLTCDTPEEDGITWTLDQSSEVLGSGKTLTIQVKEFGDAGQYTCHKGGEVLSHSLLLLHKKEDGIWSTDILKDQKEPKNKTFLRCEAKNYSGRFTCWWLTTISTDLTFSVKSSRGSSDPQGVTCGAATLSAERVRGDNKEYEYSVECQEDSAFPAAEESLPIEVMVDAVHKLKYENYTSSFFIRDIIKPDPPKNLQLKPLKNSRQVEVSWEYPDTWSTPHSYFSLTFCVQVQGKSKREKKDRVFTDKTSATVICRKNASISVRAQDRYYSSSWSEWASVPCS
As to the kind of experiment: BLI (Octet), p35 C74 variant against p40 C177F. On the technique in general: BLI is a label-free optical method that tracks binding on a fibre tip over time.

The target in experiment [1] is T3, IL-2/IL-15 receptor on HH cells (human).
T3 chain 1: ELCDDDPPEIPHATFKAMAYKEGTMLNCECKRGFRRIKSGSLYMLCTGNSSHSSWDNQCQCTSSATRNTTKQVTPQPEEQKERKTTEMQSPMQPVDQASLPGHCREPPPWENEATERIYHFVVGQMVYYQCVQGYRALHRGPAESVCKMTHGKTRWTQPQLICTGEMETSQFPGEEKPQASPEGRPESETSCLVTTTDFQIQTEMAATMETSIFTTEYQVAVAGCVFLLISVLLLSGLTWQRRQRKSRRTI
T3 chain 2: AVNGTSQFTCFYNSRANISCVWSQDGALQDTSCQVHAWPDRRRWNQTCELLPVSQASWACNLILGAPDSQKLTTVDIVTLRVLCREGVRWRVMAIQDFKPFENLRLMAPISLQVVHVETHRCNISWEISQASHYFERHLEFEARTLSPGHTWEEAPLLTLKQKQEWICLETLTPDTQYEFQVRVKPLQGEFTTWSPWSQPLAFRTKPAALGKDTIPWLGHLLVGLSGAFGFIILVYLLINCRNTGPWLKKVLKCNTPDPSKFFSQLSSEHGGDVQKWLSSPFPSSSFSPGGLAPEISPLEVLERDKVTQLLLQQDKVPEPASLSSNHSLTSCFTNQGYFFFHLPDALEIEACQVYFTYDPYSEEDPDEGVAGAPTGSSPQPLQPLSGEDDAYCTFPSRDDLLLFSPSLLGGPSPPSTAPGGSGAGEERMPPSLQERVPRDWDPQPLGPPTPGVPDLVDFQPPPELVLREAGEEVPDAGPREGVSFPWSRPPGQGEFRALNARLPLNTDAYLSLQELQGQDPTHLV
T3 chain 3: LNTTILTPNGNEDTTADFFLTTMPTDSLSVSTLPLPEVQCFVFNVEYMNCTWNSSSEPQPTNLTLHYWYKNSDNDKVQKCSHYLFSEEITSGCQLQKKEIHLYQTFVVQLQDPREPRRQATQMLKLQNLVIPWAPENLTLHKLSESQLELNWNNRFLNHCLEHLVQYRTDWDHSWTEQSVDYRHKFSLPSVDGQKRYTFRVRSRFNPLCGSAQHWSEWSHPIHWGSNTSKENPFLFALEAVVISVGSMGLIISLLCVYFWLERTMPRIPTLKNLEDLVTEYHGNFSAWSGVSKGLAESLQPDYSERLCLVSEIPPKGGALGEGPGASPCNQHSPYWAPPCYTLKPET
Put plainly: cell-based or functional assay.

Experiment [2] deals with Recombinant human uPAR his (R&D Systems, 807-UK-100/CF) (human, UniProt Q03405 23-303, biotinylated (sites not given)). As to the kind of experiment: SPR (Biacore), biotinylated human uPAR his on streptavidin chip. In general terms: SPR reads the build-up and loss of mass on a sensor chip optically.

B1: IL-12 p35 C74K variant (other)
chain: RNLPVATPDPGMFPCLHHSQNLLRAVSNMLQKARQTLEFYPCTSEEIDHEDITKDKTSTVEACLPLELTKNESKLNSRETSFITNGSCLASRKTSFMMALCLSSIYEDLKMYQVEFKTMNAKLLMDPKRQIFLDQNMLAVIDELMQALNFNSETVPQKSSLEEPDFYKTKIKLCILLHAFRIRAVTIDRVMSYLNAS
Take B1: in the experiment with IL-12 p40 C177S variant, binding was put at a Kd of 19.6 nM; the koff (commonly the rate constant with which the complex falls apart) is 0.000508 s⁻¹; the kon – broadly, a measure of how fast the partners come together – was found to be 25900 M⁻¹ s⁻¹. In the experiment with IL-12 p40 C177F variant, the Kd (as a rule, the constant that tells how readily two partners part at equilibrium) is 18.4 nM; the koff came to 0.000295 s⁻¹; the kon is 16000 M⁻¹ s⁻¹.

B2: IL-12 p35 C74Y variant (other)
chain: RNLPVATPDPGMFPCLHHSQNLLRAVSNMLQKARQTLEFYPCTSEEIDHEDITKDKTSTVEACLPLELTKNESYLNSRETSFITNGSCLASRKTSFMMALCLSSIYEDLKMYQVEFKTMNAKLLMDPKRQIFLDQNMLAVIDELMQALNFNSETVPQKSSLEEPDFYKTKIKLCILLHAFRIRAVTIDRVMSYLNAS
In the experiment with IL-12 p40 C177S variant, B2 gave an equilibrium dissociation constant (Kd) of 23.2 nM, a koff of 0.000411 s⁻¹ and a kon of 17700 M⁻¹ s⁻¹. In the experiment with IL-12 p40 C177F variant, this molecule displayed a Kd of 23.8 nM, a koff of 0.000298 s⁻¹ and a kon of 12500 M⁻¹ s⁻¹.

B3: IL-12 p35 C74W variant (other)
chain: RNLPVATPDPGMFPCLHHSQNLLRAVSNMLQKARQTLEFYPCTSEEIDHEDITKDKTSTVEACLPLELTKNESWLNSRETSFITNGSCLASRKTSFMMALCLSSIYEDLKMYQVEFKTMNAKLLMDPKRQIFLDQNMLAVIDELMQALNFNSETVPQKSSLEEPDFYKTKIKLCILLHAFRIRAVTIDRVMSYLNAS
In the experiment with IL-12 p40 C177S variant, B3 yielded a dissociation constant Kd of 27 nM, a koff of 0.000432 s⁻¹ and a kon of 16000 M⁻¹ s⁻¹. Besides, in the experiment with IL-12 p40 C177F variant, binding was characterised by a dissociation constant (Kd) of 25.4 nM, the koff turned out to be 0.000291 s⁻¹ and the kon was 11500 M⁻¹ s⁻¹.

B4: Human cpIL-2:IL-2Ra (other)
chain: SKNFHLRPRDLISNINVIVLELKGSETTFMCEYADETATIVEFLNRWITFSQSIISTLTGGSSSTKKTQLQLEHLLLDLQMILNGINNYKNPKLTRMLTFKFYMPKKATELKHLQCLEEELKPLEEVLNLAQGSGGGSELCDDDPPEIPHATFKAMAYKEGTMLNCECKRGFRRIKSGSLYMLCTGNSSHSSWDNQCQCTSSATRNTTKQVTPQPEEQKERKTTEMQSPMQPVDQASLPGHCREPPPWENEATERIYHFVVGQMVYYQCVQGYRALHRGPAESVCKMTHGKTRWTQPQLICTG
Consider B4, for which the “pSTAT5 EC50, HH cells” value in experiment [1] was 1.1 nM.

B5: Human cpIL-2:IL-2Ra:Human uPA-ATF-His6 (other)
chain: SKNFHLRPRDLISNINVIVLELKGSETTFMCEYADETATIVEFLNRWITFSQSIISTLTGGSSSTKKTQLQLEHLLLDLQMILNGINNYKNPKLTRMLTFKFYMPKKATELKHLQCLEEELKPLEEVLNLAQGSGGGSELCDDDPPEIPHATFKAMAYKEGTMLNCECKRGFRRIKSGSLYMLCTGNSSHSSWDNQCQCTSSATRNTTKQVTPQPEEQKERKTTEMQSPMQPVDQASLPGHCREPPPWENEATERIYHFVVGQMVYYQCVQGYRALHRGPAESVCKMTHGKTRWTQPQLICTGGGSGGSNELHQVPSNCDCLNGGTCVSNKYFSNIHWCNCPKKFGGQHCEIDKSKTCYEGNGHFYRGKASTDTMGRPCLPWNSATVLQQTYHAHRSDALQLGLGKHNYCRNPDNRRRPWCYVQVGLKPLVQECMVHDCAHHHHHH
notes: also called 99
B5: in experiment [2], the Kd turned out to be 0.59 nM, the koff was 0.00049 s⁻¹ and the kon came out at 830000 M⁻¹ s⁻¹. The “pSTAT5 EC50, HH cells” value in experiment [1] came to 1.5 nM.

B6: Human IL-15Ra:cpIL-15 (other)
chain: ITCPPPMSVEHADIWVKSYSLYSRERYICNSGFKRKAGTSSLTECVLNKATNVAHWTTPSLKCIRDGGSELEEKNIKEFLQSFVHIVQMFINGGGSNWVNVISDLKKIEDLIQSMHIDATLYTESDVHPSCKVTAMKCFLLELQVISLESGDASIHDTVENLIILANNSLSSNGNVTESGCKEC
On to B6, for which the “pSTAT5 EC50, HH cells” value in experiment [1] amounted to 39 pM.

B7: His6:Human uPA-ATF:hIL-15Ra:cpIL-15 (other)
chain: HHHHHHSNELHQVPSNCDCLNGGTCVSNKYFSNIHWCNCPKKFGGQHCEIDKSKTCYEGNGHFYRGKASTDTMGRPCLPWNSATVLQQTYHAHRSDALQLGLGKHNYCRNPDNRRRPWCYVQVGLKPLVQECMVHDCAGGSGGITCPPPMSVEHADIWVKSYSLYSRERYICNSGFKRKAGTSSLTECVLNKATNVAHWTTPSLKCIRDGGSELEEKNIKEFLQSFVHIVQMFINGGGSNWVNVISDLKKIEDLIQSMHIDATLYTESDVHPSCKVTAMKCFLLELQVISLESGDASIHDTVENLIILANNSLSSNGNVTESGCKEC
notes: also called 100
Consider B7, for which, in experiment [2], the Kd was determined as 1.1 nM, the koff amounted to 0.00056 s⁻¹ and the kon was 500000 M⁻¹ s⁻¹. In experiment [1], the “pSTAT5 EC50, HH cells” value came out at 0.18 nM.

B8: Human uPA-ATF:Human cpIL-2:IL-2Ra:His6 (other)
chain: SNELHQVPSNCDCLNGGTCVSNKYFSNIHWCNCPKKFGGQHCEIDKSKTCYEGNGHFYRGKASTDTMGRPCLPWNSATVLQQTYHAHRSDALQLGLGKHNYCRNPDNRRRPWCYVQVGLKPLVQECMVHDCAGGSGGSKNFHLRPRDLISNINVIVLELKGSETTFMCEYADETATIVEFLNRWITFSQSIISTLTGGSSSTKKTQLQLEHLLLDLQMILNGINNYKNPKLTRMLTFKFYMPKKATELKHLQCLEEELKPLEEVLNLAQGSGGGSELCDDDPPEIPHATFKAMAYKEGTMLNCECKRGFRRIKSGSLYMLCTGNSSHSSWDNQCQCTSSATRNTTKQVTPQPEEQKERKTTEMQSPMQPVDQASLPGHCREPPPWENEATERIYHFVVGQMVYYQCVQGYRALHRGPAESVCKMTHGKTRWTQPQLICTGHHHHHH
notes: also called 98
With B8, in experiment [2], the Kd is 2.2 nM, the koff was 0.001 s⁻¹ and the kon was 460000 M⁻¹ s⁻¹.
